Measurements as given in patent EP4269437A1.
Numbering of substitutions follows the chain as printed.

B1: NB139 (VHH)
VHH: EVQVVESGGGLVQTGGSLRLSCAASGDTALISAMGWYRQAPGKERELVAALTNTGITYYADSVKGRFTISRDNAKNTVYLQMNSLKPEDTAVYYCNAGAPPPGGLGYDESDYWGQGTQVTVSS
B2: NB164 (VHH)
VHH: QVQLVESGGGLLQAGDSLRLSCIASGRTFSSYAMGWFRQAPGKEREFVAGINGNGRSQYYAEVVKDRFFISRDNAKNTVYLQMNSLKPEDTAVYYCAAEGHLGVPTVRSDEYDYWGQGTQVTVSS
B3: NB153 (VHH)
VHH: DVQLQESGGGLVQAGGSLRVSCAASGRTFSSYGMGWFRQAPGKERELVAAITNTGLTYYADSVEGRFTISRDAAKNTVYLQMNSLEPEDTAVYYCNAGAPPPGGLGYDESDYWGQGTLVTVSS
B4: NB172 (VHH)
VHH: EVQLVESGGGLVQAGGSLRLSCTASGDTRLASAMGWYRQAPGKERELVAVITNSGLTHYADSVEGRFTISRDSAKNTVYLQMNSLKPEDTAVYYCNAGAPPPGGLGYDESDYWDQGTQVTVSS
B5: NB532 (VHH)
VHH: QVQLVETGGGLVQAGGSLRLSCAASGRTFSSYNMGWFRQAPGKEREFVAAISWSGGSQGYAAAVKDRFTISRDNAKNTVYLQMNSLKAEDTAVYYCAAKYHSGSYYYTSIRPEEYDYWGQGTQVTVSS
B6: NB169 (VHH)
VHH: QVQLVESGGGLVPPGGSLRLSCAASGFTFSSYPMSWYRQAPGRKRDFVAMLTGAGGSTDYADSVKGRFTISRDNAKNTVYLQMNSLKPEDTAVYYCNAPAAMRDYGIDYWGKGTLVNVSS
B7: NB754 (VHH)
VHH: QLQLVESGGGLVQPGGSLRLSCAVSGFTFSSDAMNWYRQAPGKERELVASITIDGGSTNYADSVKGRFTISRDNAKNTLYLQMNSLKPEDTAVYYCNADRGIIIYGKTYWGQGTQVTVSS
B8: NB734 (VHH)
VHH: QVQLVETGGGLVQAGGSLRLSCAASGDTILFSAVGWHRQAPGKERELVAAITNSGVTYYADSVKGRFSISRDNAKNTVYLQMNSLKPEDTAVYYCNAGAPPPGEFGYDESDYWGQGTQVTVSS
B9: NB196 (VHH)
VHH: B8 VHH with A23T, I29N, V34M, V56M, S62V, S68T, I69L, E104G
B10: NB171 (VHH)
VHH: QVQLVESGGGLVQAGGSLRLSCAASGRTFSSYAMGWFRQALGKEREWIAGVSMSGRTTYYAAPVKDRFTISRDNAKNTVTLQMNSLKPEDTAVYYCAAGRAQAEIPIMRAQEYDSWGQGTQVTVSS
B11: NB148 (VHH)
VHH: QVQLVESGGGLVQAGGSLRLSCAASGGTFSGSELGWFRQAPGKEREFVAGISRNGGTTGYSDSVKDRFTIARDNAKNTVYLQMNSLKPEDTAVYYCAAGLRAYYGDSYVDTMTENYNYWGQGTQVTVSS
B12: NB222 (VHH)
VHH: QVQLVESGGGLVQAGGSLRLSCAASGGTFSNFNVGWFRQAPGKEREFVAASNWSAGTTHYSDSVKGRFTISRDNAANTAYLQMNSLRPDDTAVYYCNRVIRGTTYPDVYYGMDYWGKGTLVTVSS
B13: NB159 (VHH)
VHH: QVQLVESGGGSVQAGDSLRISCEASGRTFMRYSMGWFRQASGKEREFVAAISWGGSSTYYADSVKGRFIISRDNTKNTVFLQMNSLKPEDTAVYYCAADTNPSGSWDRPTNEAEYDYWGQGTQVTVSS
B14: NB223 (VHH)
VHH: EVQLVESGGGLVQAGGSLRLSCAASGRTFSSYGMGWFRQAPGKEREFVAAVNWSNSSAYYADSVKDRFTISSDNAKSTIYLQMNSLKPEDTAVYYCRPYSDYVTYDPDDYDYWGQGTQVTVSS
B15: NB170 (VHH)
VHH: EVQLVESGGGLVQAGDSLRLSCAASGGTFGRLETGWFRQAPGKEREFVAAISWDGETSYADSVKGRFTISRDNAKNTMALQMNRLTPEDTAVYFCAARVILRAYKYWGQGTQVTVSS
B16: NB154 (VHH)
VHH: QVQLVESGGGLVQAGDSLRLSCAASGGTFSGYGMGWFRQAPGKEREFVAGISRHGGSTGYSSSVKDRFTISRDNAKNTVDLQMNSLKPEDTAVYHCAAALRPDYGDSYVYTSTSNYEYWGQGTQVTVSS
B17: NB192 (VHH)
VHH: EVQLVESGGGLVQAGGSLRLSCAASGRTFNGYGMGWFRQAPGKEREFVAAISWRDSSKYYADSVRDRFTASRDNAKNTVYLQMNSLKPEDTAVYYCRPYSDYVTYDPYDYDAWGQGTQVTVSS
B18: NB221 (VHH)
VHH: EVQLVESGGGLVQAGDSLRLSCAASGRTFSSVAMGWFRQAPGKEREFVAAISRSGGSAGYADSVKDRSTIARDNTKNTVYLQMNSLKPEDTAVYFCAASEYDFCSTHGCYDYWGQGTQVTISL
B19: NB173 (VHH)
VHH: QVQLQESGGGLVQAGGSLRLSCAASGRSFNSYAMGWFRQAPGKEREFVAAISQNGGTQGYAEAVKDRFTISRDNTNKVVALQMNSLKPEDTAAYYCAADGDASDISYAPPRDYEYDYWGQGTQVTVSS
B20: NB200 (VHH)
VHH: B19 VHH with Q5V, R19T, S28T, T57S, I105R, D116E
B21: NB147 (VHH)
VHH: EVQVVESGGGVVQAGDSLRLSCVASGRTFSSVAMGWFRQAPGKEREFVAAISRSGGSAGYSDSVKDRSTISRDNAKNTVYLQMNSLKPEDTAVYFCAASELDFCSTLGCYDYWGQGIQVTFSS
B22: NB735 (VHH)
VHH: EVQVVESGGGLVQPGGSLTLSCAVSGFTLDDYSIGWFRQAPGRAREAVSCTSNRDGSTYYEDSVKGRFTISRDNAKNTVYLQMNSLKPEDTAVYRCSTDCSLYGSTYSPDYWGQGTQVIVSS
B23: NB755 (VHH)
VHH: QVQLVESGGGLVQAGGSLRLSCVDSGRTFSSYGMGWFRQAPGKEREFVAAVNWRNTTAYYADSAKDRFTISSDNAKNTVYLQMASLKPEDTGVYYCRPYSDYVSYDPTEYDSWGQGTQVTVSS
B24: NB166 (VHH)
VHH: EVQVQESGGGLVQAGGSLTLSCAASGDTILISSIGWYRQAPGKERELVAAITNSGLTYYPDSVKGRFTISRDNAKNTVYLQMNNLKPEDTAVYYCNAGGPPPGGLGYDESDYWGQGTQVTVSS
B25: NB195 (VHH)
VHH: B24 VHH with Q5V, T19R, S33A, E44V, L56V, P60T, N83D, N84S, Q115P, Q118H
B26: NB733 (VHH)
VHH: QVQLVESGGGLVQPGASLRLSCAAAGFTFSSWAMTWVRQAPGKGLEWVSAISSGSGEMADYADSVKGRFAISRDNAKNTLYLQMNNLQPEDTAMYYCAKGGYLTYANLGPGTQVTVSS
B27: NB189 (VHH)
VHH: QVKLEESGGGLVQAGGSLRLSCTASGGTFNSYAMGWFRQAPGKERESVAAINLSRGNTYYADSVKGRFTISRDNAKNTVYLQMNSLKPEDTAVYHCGVDRRQYGLGIPPLADHWGQGTQVTVSS
B28: NB548 (VHH)
VHH: QLQLVESGGGLVQPGGSLRLSCTANGFSVGDYSMSWHRQPPGKEREVVATTARDSGSTFYAASVKGRFTISRDNAKNTVYLQMNSLKPEDTGVYYCRVNSQDYWGQGTQVTVSS
B29: NB197 (VHH)
VHH: QVQLQESGGGLVQPGGSLRLSCAASGFTLDDHSIGWFRQAPGKEREPVSCISTSDGRTYYEDSVKGRFTISRDKAKNTVYLQMDSLKPEDTAVYYCTTDVACYSDYDPSFRFWGQGTQVTVSS

Molecular target: PD-1 (UniProt Q15116)
Assay: blocking ELISA, clone supernatant, competitor PD-L1.hFc detected with anti-human Fc HRP

PD-1, sequence (Q15116 25-170 limits assumed): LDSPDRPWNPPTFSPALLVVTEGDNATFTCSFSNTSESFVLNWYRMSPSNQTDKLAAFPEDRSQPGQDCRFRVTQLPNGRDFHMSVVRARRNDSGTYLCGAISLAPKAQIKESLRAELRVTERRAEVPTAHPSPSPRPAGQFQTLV

In order of rising OD450, PD-L1 binding with PD-1:
1. B10  0.715 OD450
2. B19  0.794 OD450
3. B21  0.994 OD450
4. B8  1.42 OD450
5. B2  2 OD450
6. B15  2.02 OD450
7. B3  2.05 OD450
8. B13  2.1 OD450
9. B6  2.13 OD450
10. B4  2.17 OD450
11. B5  2.19 OD450
12. B23  2.2 OD450
13. B12  2.23 OD450
14. B17  2.24 OD450
15. B25  2.24 OD450
16. B14  2.25 OD450
17. B18  2.25 OD450
18. B29  2.27 OD450
19. B16  2.28 OD450
20. B24  2.29 OD450
21. B27  2.34 OD450
22. B7  2.37 OD450
23. B1  2.39 OD450
24. B28  2.43 OD450
25. B22  2.44 OD450
26. B26  2.47 OD450
27. B20  2.48 OD450
28. B9  2.49 OD450
29. B11  2.56 OD450

Molecular target: PD-1 (UniProt Q15116)
Assay: ELISA, TG1 supernatant on coated PD-1, anti-c-myc HRP

In order of falling OD450, clone binding with PD-1:
1. B9  3.39 OD450
2. B24  3.39 OD450
3. B3  3.29 OD450
4. B12  3.13 OD450
5. B25  3.13 OD450
6. B1  3.12 OD450
7. B4  3.05 OD450
8. B19  2.97 OD450
9. B27  2.97 OD450
10. B6  2.9 OD450
11. B2  2.84 OD450
12. B11  2.84 OD450
13. B10  2.78 OD450
14. B15  2.7 OD450
15. B29  2.66 OD450
16. B17  2.65 OD450
17. B21  2.63 OD450
18. B18  2.62 OD450
19. B16  2.61 OD450
20. B20  2.31 OD450
21. B8  2.17 OD450
22. B28  2.13 OD450
23. B7  2.04 OD450
24. B13  1.84 OD450
25. B22  1.81 OD450
26. B23  1.7 OD450
27. B5  1.36 OD450
28. B14  1.3 OD450
29. B26  1.03 OD450
